Source: patent publication US20230025600A1, “TREATMENT OF CANCERS WITH ANTIBODY DRUG CONJUGATES (ADC) THAT BIND TO 191P4D12 PROTEINS” (AGENSYS, INC., priority 2019, published 2023)

How the values were obtained:
EV-201 adverse reactions = format: in vivo, human
Description: The data described in this section reflect exposure to PADCEV from EV-201, a single arm study in patients (n=125) with locally advanced or metastatic urothelial cancer who had received prior treatment with a PD-1 or PD-L1 inhibitor and platinum-based chemotherapy. Patients received PADCEV 1.25 mg/kg on Days 1, 8 and 15 of a 28-day cycle until disease progression or unacceptable toxicity. The median duration of exposure to PADCEV was 4.6 months (range: 0.5-15.6).

[1] = Pooled safety in 310 patients (EV-201, EV-101, EV-102); format: in vivo, human
Description: Because clinical trials are conducted under widely varying conditions, adverse reaction rates observed in the clinical trials of a drug cannot be directly compared to rates in the clinical trials of another drug and may not reflect the rates observed in practice. The data in the WARNINGS AND PRECAUTIONS section reflect exposure to PADCEV as a single agent at 1.25 mg/kg in 310 patients in EV-201, EV-101 (NCT02091999), and EV-102 ([…]). Among 310 patients receiving PADCEV, 30% were exposed for ≥6 months and 8% were exposed for ≥12 months.

[2] = Exposure-response analysis; format: in vivo, human
[3] = Population pharmacokinetic analysis in patients; format: in vivo, human
Excerpt: Population pharmacokinetic analysis included data from 369 patients based on three Phase 1 studies and one Phase 2 study. Enfortumab vedotin-ejfv pharmacokinetics were characterized after single and multiple doses in patients with locally advanced or metastatic urothelial carcinoma and other solid tumors.
Steady-state concentrations of ADC and MMAE were reached after 1 treatment cycle.

rats = assay: Repeat-dose toxicology studies in rats; format: in vivo, rat
191P4D12 = molecular target: T1, 191P4D12 (Homo sapiens, UniProt Q96NY8); assay: Comparability: analytical and biological characterization studies; conditions: binding affinity to 191P4D12, in vitro cytotoxicity, in vivo antitumor activity
T1 sequence (Q96NY8 32-510): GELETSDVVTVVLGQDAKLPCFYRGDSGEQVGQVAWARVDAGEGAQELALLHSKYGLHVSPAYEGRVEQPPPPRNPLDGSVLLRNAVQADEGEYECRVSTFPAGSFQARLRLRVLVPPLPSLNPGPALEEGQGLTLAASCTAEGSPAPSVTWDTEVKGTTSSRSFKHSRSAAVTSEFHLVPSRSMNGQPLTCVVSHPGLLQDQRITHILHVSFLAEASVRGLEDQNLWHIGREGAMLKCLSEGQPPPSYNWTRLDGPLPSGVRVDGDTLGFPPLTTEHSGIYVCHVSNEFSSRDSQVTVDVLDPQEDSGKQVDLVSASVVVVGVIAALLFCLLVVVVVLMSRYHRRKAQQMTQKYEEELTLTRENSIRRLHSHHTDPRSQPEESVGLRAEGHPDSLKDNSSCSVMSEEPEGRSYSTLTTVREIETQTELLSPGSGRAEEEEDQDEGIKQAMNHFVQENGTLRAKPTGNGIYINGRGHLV
Excerpt: As described above and in U.S. Pat. No. 8,637,642, AGS-22M6E is an ADC derived from a murine hybridoma cell line. Enfortumab vedotin is the a Chinese hamster ovary (CHO) cell line-derived equivalent of AGS-22M6E ADC and is an exemplary product used for human treatment. Enfortumab vedotin has the same amino acid sequence, linker and cytotoxic drug as AGS-22M6E. The comparability between enfortumab vedotin and AGS-22M6E was confirmed through extensive analytical and biological characterization studies, such as binding affinity to 191P4D12, in vitro cytotoxicity, and in vivo antitumor activity.

[4] = Storage of reconstituted vial and prepared infusion bag; format: physicochemical
Description: 7. Based upon the calculated dose amount, the reconstituted solution from the vial(s) should be added to the infusion bag immediately. […] If not used immediately, reconstituted vials may be stored for up to […] in refrigeration at 2° C. to 8° C. (36° F. to 46° F.). […] Discard unused vials with reconstituted solution beyond the recommended storage time.
14. If the infusion is not administered immediately, the prepared infusion bag should not be stored longer than […] at 2° C. to 8° C. (36° F. to 46° F.).

[5] = EV-201, patients who experienced rash
[6] = 310 patients in clinical trials
[7] = 310 patients in clinical trials, 1.25 mg/kg
[8] = ADC, after first treatment cycle of 1.25 mg/kg, Days 1, 8 and 15

In the case of enfortumab vedotin-ejfv [PADCEV], the herpes zoster (EV-201 adverse reactions; EV-201) is reported as 3%, the infusion site extravasation (EV-201 adverse reactions; EV-201) is reported as 2% and the “median time to onset of Grade >=2 peripheral neuropathy” value (EV-201 adverse reactions; EV-201) is reported as 3.8 months. For the same substance, the “median time to onset of severe skin reactions” value (EV-201 adverse reactions; EV-201) was 0.8 months, the “peripheral neuropathy: complete resolution at last evaluation” value (EV-201 adverse reactions; EV-201) was 19% and the “peripheral neuropathy: partial improvement at last evaluation” value (EV-201 adverse reactions; EV-201) was 26%. For the same substance, the “Alopecia, Grade >= 3” value (EV-201 adverse reactions; EV-201, n = 125) was 0%, the “Any adverse reaction, All Grades” value (EV-201 adverse reactions; EV-201, n = 125) was 100% and the “Any adverse reaction, Grade >= 3” value (EV-201 adverse reactions; EV-201, n = 125) was 73%. For the same substance, the “Decreased appetite, Grade >= 3” value (EV-201 adverse reactions; EV-201, n = 125) was 2%, the “Dry skin, Grade >= 3” value (EV-201 adverse reactions; EV-201, n = 125) was 0% and the “Dysgeusia, Grade >= 3” value (EV-201 adverse reactions; EV-201, n = 125) was 0%. The “Nausea, Grade >= 3” value (EV-201 adverse reactions; EV-201, n = 125) was 3%, the “Peripheral neuropathy (grouped term), Grade >= 3” value (EV-201 adverse reactions; EV-201, n = 125) was 4% and the “Pruritus, All Grades” value (EV-201 adverse reactions; EV-201, n = 125) was 26%. For the same substance, the “Pruritus, Grade >= 3” value (EV-201 adverse reactions; EV-201, n = 125) was 2%, the “Vomiting, All Grades” value (EV-201 adverse reactions; EV-201, n = 125) was 18% and the “Vomiting, Grade >= 3” value (EV-201 adverse reactions; EV-201, n = 125) was 2%. The “adverse reactions leading to discontinuation” value (EV-201 adverse reactions; EV-201, n = 125) was 16%, the “adverse reactions leading to dose interruption” value (EV-201 adverse reactions; EV-201, n = 125) was 64% and the “adverse reactions leading to dose reduction” value (EV-201 adverse reactions; EV-201, n = 125) was 34%. For the same substance, the “dose interruption due to fatigue” value (EV-201 adverse reactions; EV-201, n = 125) was 6%, the “dose interruption due to peripheral neuropathy” value (EV-201 adverse reactions; EV-201, n = 125) was 18% and the “dose interruption due to rash” value (EV-201 adverse reactions; EV-201, n = 125) was 9%. The “dose reduction due to fatigue” value (EV-201 adverse reactions; EV-201, n = 125) was 4%, the “dose reduction due to peripheral neuropathy” value (EV-201 adverse reactions; EV-201, n = 125) was 12% and the “dose reduction due to rash” value (EV-201 adverse reactions; EV-201, n = 125) was 6%. For the same substance, the “fatal adverse reaction: acute respiratory failure” value (EV-201 adverse reactions; EV-201, n = 125) was 0.8%, the “fatal adverse reaction: aspiration pneumonia” value (EV-201 adverse reactions; EV-201, n = 125) was 0.8% and the “fatal adverse reaction: cardiac disorder” value (EV-201 adverse reactions; EV-201, n = 125) was 0.8%. For the same substance, the “fatal adverse reaction: sepsis” value (EV-201 adverse reactions; EV-201, n = 125) was 0.8%, the fatal adverse reactions (EV-201 adverse reactions; EV-201, n = 125) was 3.2% and the “peripheral neuropathy leading to treatment discontinuation” value (EV-201 adverse reactions; EV-201, n = 125) was 6%. The “serious adverse reaction: diarrhea” value (EV-201 adverse reactions; EV-201, n = 125) was 4%, the “serious adverse reaction: fatigue” value (EV-201 adverse reactions; EV-201, n = 125) was 2% and the “serious adverse reaction: nausea” value (EV-201 adverse reactions; EV-201, n = 125) was 2%. For the same substance, the “serious adverse reaction: rash” value (EV-201 adverse reactions; EV-201, n = 125) was 3%, the “serious adverse reaction: vomiting” value (EV-201 adverse reactions; EV-201, n = 125) was 2% and the serious adverse reactions (EV-201 adverse reactions; EV-201, n = 125, 1.25 mg/kg Days 1, 8, 15 of 28-day cycle) was 46%. For the same substance, the “rash: complete resolution” value (EV-201 adverse reactions; [5]) was 65%, the “rash: partial improvement” value (EV-201 adverse reactions; [5]) was 22% and the “patients who developed Grade 3-4 hyperglycemia” value (EV-201 adverse reactions; EV-201, baseline hemoglobin A1C >=8% excluded) was 8%. The blurred vision ([1]; 310 patients) was 14%, the dry eye symptoms ([1]; 310 patients) was 19% and the “extravasation reactions with secondary cellulitis, bullae, or exfoliation” value ([1]; 310 patients) was “One”. The “median time to onset to symptomatic vision disorder” value ([1]; 310 patients) was 3.1 months, the ocular disorders ([1]; 310 patients) was 46% and the “skin and soft tissue reactions secondary to extravasation” value ([1]; 310 patients) was 1.3%. For the same substance, the “Grade 3-4 skin reactions” value [1, 6] was 10%, the maculopapular rash [1, 6] was 26% and the pruritus [1, 6] was 30%. For the same substance, the skin reactions [1, 6] was 54%, the “peripheral neuropathy Grade 3 reactions” value [1, 7] was 2% and the “peripheral neuropathy, predominantly sensory” value [1, 7] was 49%. The “differences in safety or effectiveness between patients 65 years or older and younger patients” value ([1]; 310 patients, 187 were 65 years or older, 80 were 75 years or older) was “No overall differences”, the “erythema, swelling, increased temperature and pain worsened until, after extravasation” value ([1]; infusion site extravasation) was 2 to 7 days and the “extravasation reactions resolved within, of peak” value ([1]; infusion site extravasation) was 1-4 weeks. The “incidence of Grade 3-4 hyperglycemia with higher body mass index and higher baseline A1C” value ([1]; patients treated with PADCEV) was “increased consistently”, the “association of higher exposure” value ([2]; e.g. Grade >=2 peripheral neuropathy, Grade >=3 hyperglycemia) was “higher incidence of some adverse reactions” and the “association of lower exposure” value ([2]; exposure-response analysis) was “lower efficacy”. For the same substance, the “exposure (AUC) in mild, moderate or severe renal impairment” value ([3]; 1.25 mg/kg, compared to normal renal function) was “No significant differences”, the “AUC0-28 d, Mean (±SD)” value [3, 8] was 111 (38) μg · d/mL and the “Cmax, Mean (±SD)” value [3, 8] was 28 (6.8) μg/mL. For the same substance, the “accumulation following repeat administration” value ([3]; patients) was “Minimal accumulation”, the “estimated mean steady-state volume of distribution” value ([3]; patients) was 11 L and the “mean clearance (CL)” value ([3]; patients) was 0.10 L/h. For the same substance, the “steady-state concentrations reached after” value ([3]; patients) was 1 treatment cycle, the “time of peak ADC concentrations” value ([3]; patients, intravenous infusion) was “near the end of intravenous infusion” and the elimination half-life ([3]; patients, multi-exponential declines) was 81.6 h. The “differences in pharmacokinetics based on age (24 to 87 years), sex, or race/ethnicity” value ([3]; population pharmacokinetic analysis) was “no clinically significant differences”, the “potential indicated by repeat-dose toxicity studies in rats” value (rats) was “impair male reproductive function and fertility” and the “reversal of testes and epididymis findings by end of recovery period” value (rats; up to 13 weeks) was “did not reverse”. The “findings in testes and epididymis” value (rats; up to 13 weeks, doses >=2 mg/kg, exposures similar to recommended human dose) was “decreases in testes and epididymis weights, seminiferous tubule degeneration, spermatid/spermatocyte depletion in the testes and cell debris, sperm granuloma and hypospermia/abnormal spermatids in the epididymis”, the “comparability between enfortumab vedotin and AGS-22M6E” value (191P4D12) was “confirmed” and the “storage time of prepared infusion bag” value ([4]; 2° C. to 8° C.) was ≤ 8 h. The “storage time of reconstituted vials” value ([4]; refrigeration at 2° C. to 8° C.) was “up to 4 hours”.
